Results reported in paper PMC8038143, “Conformation-Specific Inhibitory Anti-MMP-7 Monoclonal Antibody Sensitizes Pancreatic Ductal Adenocarcinoma Cells to Chemotherapeutic Cell Kill” (Cancers, 2021).

Assays:
[1] = molecular target: T1, recombinant catalytic human MMP-7 (active enzyme) (Homo sapiens, UniProt P09237); assay: cell-based or functional assay
[2] = molecular target: T1, recombinant catalytic human MMP-7 …; assay: ELISA; 96-well plate coated with MMPs at 5 mg/mL; GSM-192 incubated at 25 °C for 1 h; detected with goat anti-Fab/anti-mouse antibody and peroxidase-conjugated anti-goat antibody; four-parametric sigmoidal fit; conditions: both partners purified

T1 sequence (P09237 95-258): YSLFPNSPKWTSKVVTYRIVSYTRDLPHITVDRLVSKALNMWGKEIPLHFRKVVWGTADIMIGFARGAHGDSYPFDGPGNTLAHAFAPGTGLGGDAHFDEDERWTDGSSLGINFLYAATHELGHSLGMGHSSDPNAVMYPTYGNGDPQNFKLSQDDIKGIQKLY

B1: GSM-192 anti-MMP-7 monoclonal antibody (antibody, V domains shown)
VH: EVQLQQSGPELVKPGASVKIPCKASGYTFTDYNMDWMKQSHGKSLEWIGHINPNNGGTFYNQKFKDKATFIVDKSSNTAYMELRSLTSEDTAVYFCARGGGLRRGPFAYWGQGTLVTVS
VL: DIVTQSPASLAVSLGQRATISCRASESFDSYGNTFVHWYQQKPGQPPKLLIYLVSNLESGVPAGFRGRGSRTDFTLTIDPVEADDAATYYCQQNNEDPYTFGGGTKLEIK
notes: Whole mouse monoclonal antibody; source: mouse hybridoma (BALB/c B cells fused with NSO myeloma cells), supernatant, purified (protein A column)
In the case of B1, the “death of AsPC-1 PDAC cells treated with GSM-192, IC50” value [1] is reported as 2300 nM, the “death of CFPAC-1 PDAC cells treated with GSM-192, IC50” value [1] is reported as 4300 nM and the EC50 [2] is reported as 43 ± 1 nM.
